In JP2012034697A:

Molecular target: Aβ(βアミロイドペプチド) (UniProt P05067)
Assay: BIAcore

Chain of UniProt P05067 (P05067 672-713 limits assumed): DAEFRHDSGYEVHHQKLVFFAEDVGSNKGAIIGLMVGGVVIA

- Kd: 0.88 nM
Substance: マウスモノクローナル抗体3D6 (antibody)
